# Test results taken from patent US20250129140A1 (ICAHN SCHOOL OF MEDICINE AT MOUNT SINAI, published 2025).
# B1: 14E1 (antibody, V domains shown)
# VH: QVQLVQSGAEVKKPGASVKVSCKASGYTFTSYSISWVRQAPGQGLEWMGWINTYNGNTNYAQRVQARVTMTTDTSTSTAYMELRSLRSDDTAVYYCARDHGFFFDYWGQGNLVTVSS
# VL: DIQLTQSPSFLSASVGDRVTITCWASQGISSYLAWYQQKPGKAPKLLIYAASTLQSGVPSRFSGSGSGTEFTLTISSLQPEDFATYYCQQLNSYPYTFGQGTQLEIK
# notes: also called 14E1 (ms)
# B2: 15G11 (antibody, V domains shown)
# VH: QVQLQESGPGLVKPSQTLSLTCTVSGGSISSGYYYWNWIRQHPGKGLECIGYIYYSGTTYYNPSLKSRLFISVDTSKNQFSLKLRSVTAADTAVYYCARGGLGAFDIWGQGTMVTVSS
# VL: EIVLTQSPGTLSLSPGERATLSCRASQSVSSSYLAWYQQKPGQAPRLLIYGASSRAPGIPDRFSGTGSGTDFTLTISRLEPEDFAVYYCQQYGISPLTFGGGTKVEIK
# notes: also called 15G11 (ms); anti-gH mAb 15G11
# B3: 13G1 (antibody, V domains shown)
# VH: QVTLKESGPVLVKPTETLTLTCTVSGFSLYNARMGVTWIRQPPGKALEWLAHIFSNDERSYTSSLKNRLTISKDTSKSQVVLTMTNMDPVDTATYYCARIDYSNYIGNWFDPWGQGTLVTVSS
# VL: DIQMTQSPSSLSASVGDRVTITCRASQSISNYLNWYQQKPGKAPKLLIYAASSLQGGVPSRFSGSGSGTDFTLTISSLQPEDFTTYYCQQSYSTPFTFGGGTKVEIK
# notes: also called 13G1 (ms); anti-gH mAb 13G1
# B4: 9A12 (antibody, V domains shown)
# VH: EVQLVESGGVLVQPGGSLRLSCAASGFTFSSHEMNWVRQAPGKGLEWISYISSTGSTIYDADSVKGRFTISRDNAKNSLYLQMNSLRAEDTAVYYCARSSGWYRNYSYGMDVWGQGTTVTVSS
# VL: DIQMAQSPSSLSASVGDRVTITCRASQGIYNYLAWFQQKPGKAPKSLIYAASSLQTGVPSKFSGSGSGTDFTLTISNLQPEDFATYYCQQYNSFPRTFGQGTKVEIK
# notes: also called 9A12 (ms); anti-gH mAb 9A12
# B5: 5C3 (antibody, V domains shown)
# VH: QVQLQQPGAELVRPGASVKLSCKASGYTFTTYWMNWVKQRPGQGLEWIGMIDPSDSETHYNQMFKDKATLTVDTSSSTAYMQLSSLTSEDSAVYYCARGRSWFVYWGQGTLVTVSS
# VL: DIVLTQSPASLAVSLGQRATISCRASKSVSSSGYSYVHWYQQKPGQPPKLLIYLASNLESGVPARFSGSGSGTDFTLNIHSVEEEDAATYYCQHNRELPYTFGGGTKLEIKR
# Target: gH/gL of HCMV strain TR (on virus) (human cytomegalovirus (strain TR))
# Assay: cell-based or functional assay
row,Binder,"IC50(MRC5/NHDF) TR, virus neutralization [µg/mL]"
1,B1,> 50
2,B2,3.51
3,B3,3.26
4,B4,6.96

# Target: T1, gH/gL of HCMV strain AD169 (on virus AD169 and on reporter virus AD169R) (human cytomegalovirus (strain AD169), UniProt P12824 24-743; P16832 31-278)
# Assay: cell-based or functional assay
Binder,"IC50(MRC5/NHDF) AD169, virus neutralization [µg/mL]","IC50(MRC5/NHDF) AD169R, virus neutralization [µg/mL]"
B1,0.91,1.78
B2,0.31,0.51
B3,15.9,0.58
B4,0.77,1.52

# Target: T2, gH/gL of HCMV strain TB40/E (on virus) (human cytomegalovirus (strain TB40/E))
# Assay: cell-based or functional assay
row,Binder,"IC50(MRC5/NHDF) TB40/E, virus neutralization [µg/mL]"
1,B1,0.89
2,B2,0.5
3,B3,0.89
4,B4,1.09

# Target: gH/gL of HCMV strain Towne (on virus) (human cytomegalovirus (strain Towne), UniProt P17176 30-742)
# Sequence (P17176 30-742): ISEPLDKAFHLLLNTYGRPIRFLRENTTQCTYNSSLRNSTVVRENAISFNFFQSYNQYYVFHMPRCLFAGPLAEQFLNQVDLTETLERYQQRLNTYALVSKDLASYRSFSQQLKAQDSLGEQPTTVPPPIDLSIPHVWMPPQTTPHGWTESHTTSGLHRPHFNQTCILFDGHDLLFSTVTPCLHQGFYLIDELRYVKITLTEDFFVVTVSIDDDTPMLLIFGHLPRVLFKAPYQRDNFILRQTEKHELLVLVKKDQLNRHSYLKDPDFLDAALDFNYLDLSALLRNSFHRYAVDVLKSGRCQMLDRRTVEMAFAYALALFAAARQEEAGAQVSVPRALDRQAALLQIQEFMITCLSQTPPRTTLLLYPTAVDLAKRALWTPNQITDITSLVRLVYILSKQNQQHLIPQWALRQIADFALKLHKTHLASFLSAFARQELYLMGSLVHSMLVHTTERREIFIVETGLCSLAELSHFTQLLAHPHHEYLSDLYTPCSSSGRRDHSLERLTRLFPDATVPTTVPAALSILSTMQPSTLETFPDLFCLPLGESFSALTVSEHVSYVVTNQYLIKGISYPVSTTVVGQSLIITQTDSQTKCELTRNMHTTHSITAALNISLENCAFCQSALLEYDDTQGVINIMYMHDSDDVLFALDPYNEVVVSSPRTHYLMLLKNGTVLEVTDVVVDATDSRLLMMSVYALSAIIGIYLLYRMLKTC
# Assay: cell-based or functional assay
row,Binder,"IC50(MRC5/NHDF) Towne, virus neutralization [µg/mL]"
1,B1,> 50
2,B2,0.87
3,B3,1.09
4,B4,2.53

# Target: gH/gL of HCMV strain AD169 (on virus AD169 and on reporter virus AD169R) (human cytomegalovirus (strain AD169), UniProt P12824 24-743; P16832 31-278)
# Assay: flow cytometry on ARPE-19 cells infected with AD169R (GFP reporter), 6 dpi, antibody 2 µg/mL, anti-mouse AF647 secondary
row,Binder,"Q2, percent of cells GFP+ and Alexa Fluor 647+ [%]"
1,B5,3.37

# Target: T1, gH/gL of HCMV strain AD169 (on virus …)
# Assay: as above
row,Binder,"Q2, percent of cells GFP+ and Alexa Fluor 647+ [%]"
1,B1,3.68
2,B2,0.4
3,B3,0.89

# Target: T1, gH/gL of HCMV strain AD169 (on virus …)
# Assay: cell-based or functional assay
# Remark: another data set of the same source
Binder,"IC50 of infection, AD169R neutralization (murine constant regions) [µg/mL]",neutralization of BADrUL131-C4 infection at the highest concentrations [%]
B2,0.17,> 90
B3,,> 90
B4,,> 90

# Target: T1, gH/gL of HCMV strain AD169 (on virus …)
# Assay: cell-based or functional assay
# Remark: another data set of the same source
row,Binder,"IC50(THP-1) AD169R, virus neutralization [µg/mL]"
1,B1,0.02
2,B2,0.01
3,B3,0.03
4,B4,0.08

# Target: T2, gH/gL of HCMV strain TB40/E (on virus)
# Assay: cell-based or functional assay
# Remark: another data set of the same source
row,Binder,"IC50(THP-1) TB40/E, virus neutralization [µg/mL]"
1,B2,0.39
2,B3,0.02

# Target: T3, recombinant HCMV pentamer (strain VR1814) consisting of gH, gL, UL128, UL130 and UL131A (human cytomegalovirus (strain VR1814))
# T3 construct: also called recombinant pentamer; Native Antigen CMV-PENT-100
# Assay: BLI (Octet RED); antibody captured on anti-mouse Fc (AMC) biosensor, recombinant pentamer 100 µg/mL in solution; 1:1 model
Binder,Kd [nM],koff [s⁻¹],kon [M⁻¹ s⁻¹]
B1,64.6,0.00158,24400
B2,2.28,8.69e-05,38200
B3,5.05,6.51e-05,12900
B4,3.47,8.6e-05,24800

# Target: T1, gH/gL of HCMV strain AD169 (on virus …)
# Assay: cell-based or functional assay
# Remark: another data set of the same source
Binder,"IC50(ARPE-19) AD169R, virus neutralization [µg/mL]","IC50(HTR-svNeo) AD169R, virus neutralization [µg/mL]"
B1,0.11,19.2
B2,0.24,0.44
B3,1.03,1.82
B4,1.28,~1.8

# Target: T2, gH/gL of HCMV strain TB40/E (on virus)
# Assay: cell-based or functional assay
# Remark: another data set of the same source
Binder,"IC50(ARPE-19) TB40/E, virus neutralization [µg/mL]","IC50(HTR-svNeo) TB40/E, virus neutralization [µg/mL]"
B1,3.06,> 50
B2,0.09,0.41
B3,1.01,1.12
B4,1.1,0.72
